# Measured values published in patent publication US20100041743A1.
# Assays:
# Assay in all cases: cell-based or functional assay
# [1] = target: anti-OVA mouse IgG1 (mAb, Sigma)
# [2] = target: human IgG (Gammonativ, Octapharma)
# rabbit IgG (Sigma) = target: rabbit IgG (Sigma)
substance,measurement,setting,value
hybrid bFcRn α-chain / mouse β2m receptor (bovine FcRn expressed in BAC 128E04 transgenic mice) (from UniProt F6R592 35-358; P01887 21-119),"beta-phase half-life (hours) of injected mouse IgG in bFcRn Tg mice (line #14 homozygote), 10 µg/BWg",[1],165 h
same,"beta-phase half-life (hours) of injected human IgG in bFcRn Tg mice (line #14 homozygote), 10 µg/BWg",[2],172 h
same,"beta-phase half-life (hours) of injected human IgG in bFcRn Tg mice (line #14 homozygote), 20 µg/BWg",[2],181 h
same,half-life of injected rabbit IgG in bFcRn/mFcRn-/- mice (15 hours in FcRn-/- mice),rabbit IgG (Sigma),67 h
